# Reference: patent US5846743A, “Polyphoshoinositide binding peptides for intracellular drug delivery” (Brigham and Women's Hospital, Inc., priority 1996, dated 1998)
# Where a SMILES comes first, the peptide text is derived from it. The star is where a group is joined. RhodamineB = CCN(CC)c1ccc2c(-c3ccccc3C(=O)*)c3ccc(=[N+](CC)CC)cc-3oc2c1
# System: cells exposed to conjugate in culture medium, regardless of the cell type
compound,measurement,value
CCN(CC)c1ccc2c(-c3ccccc3C(=O)N[C@@H](CCC(N)=O)C(=O)N[C@@H](CCCNC(=N)N)C(=O)N[C@@H](CC(C)C)C(=O)N[C@@H](Cc3ccccc3)C(=O)N[C@@H](CCC(N)=O)C(=O)N[C@H](C(=O)N[C@@H](CCCCN)C(=O)NCC(=O)N[C@@H](CCCNC(=N)N)C(=O)N[C@@H](CCCNC(=N)N)C(=O)O)C(C)C)c3ccc(=[N+](CC)CC)cc-3oc2c1 [rhodamine-Sequence I.D. No. 2] (RhodamineB-QRLFQVKGRR-OH),intracellular free calcium increase caused by conjugate,did not result in uptake of free fluorescein or induce a large increase in intracellular free calcium
